# In PMC9413444 (ACS Nano, 2022):
# Test system: intracranial glioblastoma GL261 in BL/6 mice
# Conditions: GL261 tumor-bearing BL/6 mice; IV; 2 h post-injection (Figure 2B)
substance,measurement,value
poly(β-L-malic acid)-trileucine polymer [P/LLL(40%)],increase of fluorescence in tumor tissue from dose 0.25X to dose 1.0X,increases proportionally with the dose administered
